Laboratory results reported in patent US20200317802A1 (Merck KGaA, published 2020).
Changes are numbered by the printed parent chain.

Assays:
[1] = biological target: T1, recombinant human ADAMTS5 (R&D Systems cat #2198-AD) (human, UniProt Q9UNA0 262-622, limits assumed); experiment: cell-based or functional assay
T1 sequence: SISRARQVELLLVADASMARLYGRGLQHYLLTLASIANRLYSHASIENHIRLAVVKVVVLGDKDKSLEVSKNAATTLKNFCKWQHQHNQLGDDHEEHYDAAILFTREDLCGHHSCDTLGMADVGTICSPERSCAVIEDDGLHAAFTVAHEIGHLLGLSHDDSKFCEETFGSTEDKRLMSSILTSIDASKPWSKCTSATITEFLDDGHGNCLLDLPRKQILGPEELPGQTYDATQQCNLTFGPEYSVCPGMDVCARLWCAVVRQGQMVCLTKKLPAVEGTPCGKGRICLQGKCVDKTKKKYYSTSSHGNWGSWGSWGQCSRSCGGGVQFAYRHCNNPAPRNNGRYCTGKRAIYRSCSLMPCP

[2] = biological target: T1, recombinant human ADAMTS5 (R&D Systems …); experiment: cell-based or functional assay; remark: listed apart in the source
[3] = biological target: T2, cynomolgus monkey recombinant ADAMTS5 (cynomolgus monkey, UniProt Q9UNA0 262-622 (human entry), limits assumed); experiment: cell-based or functional assay
T2 chain: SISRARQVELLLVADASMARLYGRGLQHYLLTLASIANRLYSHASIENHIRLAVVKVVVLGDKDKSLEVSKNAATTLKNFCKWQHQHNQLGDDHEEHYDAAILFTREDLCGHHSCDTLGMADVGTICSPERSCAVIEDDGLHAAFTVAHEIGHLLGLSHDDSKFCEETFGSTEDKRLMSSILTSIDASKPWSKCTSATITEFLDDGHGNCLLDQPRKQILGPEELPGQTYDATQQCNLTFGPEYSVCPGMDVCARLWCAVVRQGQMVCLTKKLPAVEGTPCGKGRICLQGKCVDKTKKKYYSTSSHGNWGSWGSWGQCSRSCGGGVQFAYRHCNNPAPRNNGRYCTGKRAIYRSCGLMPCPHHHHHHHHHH

[4] = biological target: T3, guinea pig recombinant ADAMTS5 (guinea pig); experiment: cell-based or functional assay
T3 chain: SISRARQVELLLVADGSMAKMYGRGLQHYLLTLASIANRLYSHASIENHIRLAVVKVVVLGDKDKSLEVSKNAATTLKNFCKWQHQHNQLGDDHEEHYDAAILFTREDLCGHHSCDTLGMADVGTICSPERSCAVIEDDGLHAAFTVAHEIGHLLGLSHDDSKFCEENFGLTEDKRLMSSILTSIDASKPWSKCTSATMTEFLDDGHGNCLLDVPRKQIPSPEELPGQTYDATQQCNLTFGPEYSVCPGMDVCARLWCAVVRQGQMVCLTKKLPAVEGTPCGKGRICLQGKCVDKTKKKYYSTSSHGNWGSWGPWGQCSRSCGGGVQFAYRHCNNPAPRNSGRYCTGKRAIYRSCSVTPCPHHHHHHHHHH

[5] = biological target: T1, recombinant human ADAMTS5 (R&D Systems …); experiment: cell-based or functional assay; remark: listed apart in the source
[6] = biological target: T1, recombinant human ADAMTS5 (R&D Systems …); experiment: binding ELISA, periplasmic extract on coated human ADAMTS5
Method: In a first step, periplasmic extracts were tested for binding to recombinant human ADAMTS5 by binding ELISA. In brief, recombinant human ADAMTS5 (R&D Systems, Minneapolis, US; cat #2198-AD) at a concentration of 1 μg/ml was coated on 384-well MaxiSorp plates (Nunc, Wiesbaden, Germany). Wells were blocked with a casein solution (1%). After addition of a 10-fold dilution of the periplasmic extracts, Nanobody binding was detected using a mouse anti-Flag-HRP conjugate (Sigma, St. Louis, US) and a subsequent enzymatic reaction in the presence of the substrate esTMB (3,3′,5,5′-tetramentylbenzidine) (SDT, Brussels, Belgium). Clones showing ELISA signals higher than the sum of the average signal of the irrelevant Nanobody controls and 3 times the standard deviation of the irrelevant Nanobody controls were considered to encode positive human ADAMTS5 binding Nanobodies.

[7] = biological target: T1, recombinant human ADAMTS5 (R&D Systems …); experiment: SPR off-rate, Biacore T100, ADAMTS5 immobilised, experiment 3
Method: Species cross-reactivity was initially evaluated via SPR-based off-rate analysis on a Biacore T100 instrument. Nanobodies were tested for binding to human, cynomolgus monkey (“cyno”), guinea pig, mouse, and bovine ADAMTS5. To this end, recombinant ADAMTS5 was immobilized onto a CM5 chip via amine coupling using EDC and NHS. Purified Nanobodies were injected for 2 minutes at a concentration of 100 nM and allowed to dissociate for 15 min at a flow rate of 45 ul/min. Off-rate for each individual Nanobody was determined by fitting a 1:1 interaction model (Langmuir model) onto the individual dissociation curves using the BIA Evaluation software. As a reference, off-rates on human ADAMTS5 were determined in each experiment.

B1: Nanobody 2A12 (VHH)
VHH: EVQLVESGGGLVQAGGSLRLSCAASGRTFSSYAMGWFRQAPGKERDFVAGISRSAGRTYYVDSVKGRFTISRDSAKNTVYLQMNRLKPEDTAVYYCAADLDPNRIFSRDEAAYWGQGTLVTVSS
notes: tagged as tested (anti-Flag detection, IMAC); also called 02A12
FRET assay % inh, periplasmic extract [1]: 104%
FRET assay vi (U/min), periplasmic extract [1]: -1 U/min
AlphaLISA potency IC50, Human [2]: 0.15 nM
AlphaLISA potency IC50, Cyno [3]: 0.19 nM
AlphaLISA potency IC50, Guinea pig [4]: 0.53 nM
AlphaLISA IC50, - HSA [5]: 0.15 nM
binding ELISA (OD 450 nm) [6]: 1.75 OD 450 nm
koff [7]: 0.00031 s⁻¹

B2: Nanobody 2F03 (VHH)
VHH: B1 VHH with F29V, Q39L, D46E, G56E, V64L, Q82H, D109E, A111Y
notes: tagged as tested (anti-Flag detection, IMAC); also called 02F03; 2F3
FRET assay % inh, periplasmic extract [1]: 103%
FRET assay vi (U/min), periplasmic extract [1]: -1 U/min
AlphaLISA potency IC50, Human [2]: 0.075 nM
AlphaLISA potency IC50, Cyno [3]: 0.081 nM
AlphaLISA potency IC50, Guinea pig [4]: 0.3 nM
AlphaLISA IC50, - HSA [5]: 0.075 nM
binding ELISA (OD 450 nm) [6]: 1.84 OD 450 nm
koff [7]: 9.7e-05 s⁻¹
